The labels stand for the following.
T1: EGF1+2
T1 construct: also called Hu DLL3 EGF1+2 on HEK293 cells
T1 membrane-anchored DLL3 subdomain construct: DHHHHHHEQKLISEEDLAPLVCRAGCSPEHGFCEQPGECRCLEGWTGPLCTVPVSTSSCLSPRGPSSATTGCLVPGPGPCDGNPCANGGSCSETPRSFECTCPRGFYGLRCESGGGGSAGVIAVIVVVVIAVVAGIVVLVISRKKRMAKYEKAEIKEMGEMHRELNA

T2: EGF2+3
T2 construct: also called Hu DLL3 EGF2+3 on HEK293 cells
T2 membrane-anchored DLL3 subdomain construct: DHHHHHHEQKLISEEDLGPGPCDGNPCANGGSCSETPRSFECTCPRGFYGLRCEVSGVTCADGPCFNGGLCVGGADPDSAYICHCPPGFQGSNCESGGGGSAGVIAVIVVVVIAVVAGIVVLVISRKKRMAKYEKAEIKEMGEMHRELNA

T3: EGF4+5
T3 construct: also called Hu DLL3 EGF4+5 on HEK293 cells
T3 membrane-anchored DLL3 subdomain construct: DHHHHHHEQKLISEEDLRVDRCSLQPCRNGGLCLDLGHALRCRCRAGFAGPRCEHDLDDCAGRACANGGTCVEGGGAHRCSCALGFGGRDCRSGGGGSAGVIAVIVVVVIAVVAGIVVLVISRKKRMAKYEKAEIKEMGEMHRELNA

T4: EGF3+4
T4 construct: also called Hu DLL3 EGF3+4 on HEK293 cells
T4 membrane-anchored DLL3 subdomain construct: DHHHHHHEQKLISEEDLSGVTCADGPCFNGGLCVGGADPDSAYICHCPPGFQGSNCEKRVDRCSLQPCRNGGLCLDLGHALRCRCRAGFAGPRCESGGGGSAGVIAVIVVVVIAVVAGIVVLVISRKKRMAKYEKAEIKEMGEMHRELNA

T5: human DLL3 (endogenous, on SCLC cell lines NCI-H82 and SHP77 and in SCLC tissue) (human, UniProt Q9NYJ7 27-618)
T5 construct: whole, on cells; also called SCLC cell lines expressing DLL3
T5 sequence (looked up): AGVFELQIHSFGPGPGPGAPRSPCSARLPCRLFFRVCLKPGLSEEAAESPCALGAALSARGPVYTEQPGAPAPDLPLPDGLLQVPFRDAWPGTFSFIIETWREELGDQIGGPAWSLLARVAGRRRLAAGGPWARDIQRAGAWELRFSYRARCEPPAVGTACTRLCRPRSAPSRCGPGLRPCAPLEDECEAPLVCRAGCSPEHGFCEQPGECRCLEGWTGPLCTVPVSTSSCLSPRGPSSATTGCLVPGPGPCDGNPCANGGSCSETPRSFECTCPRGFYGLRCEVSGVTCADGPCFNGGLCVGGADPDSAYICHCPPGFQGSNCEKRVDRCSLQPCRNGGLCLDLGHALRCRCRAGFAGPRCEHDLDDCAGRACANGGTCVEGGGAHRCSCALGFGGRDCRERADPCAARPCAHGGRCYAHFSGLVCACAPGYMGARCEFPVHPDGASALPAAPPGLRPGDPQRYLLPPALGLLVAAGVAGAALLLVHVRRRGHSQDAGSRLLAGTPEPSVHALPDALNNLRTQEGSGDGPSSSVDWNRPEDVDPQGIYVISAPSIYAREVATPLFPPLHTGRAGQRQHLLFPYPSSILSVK

B1: DLL3#17/CD3#1 (bispecific antibody, human IgG1, kappa, lambda, L234A L235A)
chain 1: DIQMTQSPASLAASVGETVTITCRASENIYYSLAWYQQKQGKSPQLLIYNTNSLEDGVPSRFSGSGSGTQYSMKINSMQPEDTATYFCKQAYDFPLTFGAGTKLELKRTVAAPSVFIFPPSDEQLKSGTASVVCLLNNFYPREAKVQWKVDNALQSGNSQESVTEQDSKDSTYSLSSTLTLSKADYEKHKVYACEVTHQGLSSPVTKSFNRGECGGGGSEGKSSGSGSESKSTEGKSSGSGSESKSTGGGGSQIQLQQSGPEVVKPGASVKISCKASGYTFISYYIHWVKQRPGQGLEWIGWIYPGDGSTNNNEKFKGKTTLTADKSSSTAYMLLSSLTSEDSAVYFCARGEGNAMDDWGQGTSVTVSSASTKGPSVFPLAPSSKSTSGGTAALGCLVKDYFPEPVTVSWNSGALTSGVHTFPAVLQSSGLYSLSSVVTVPSSSLGTQTYICNVNHKPSNTKVDKRVEPKSCDKTHTCPPCPAPEAAGGPSVFLFPPKPKDTLMISRTPEVTCVVVDVSHEDPEVKFNWYVDGVEVHNAKTKPREEQYNSTYRVVSVLTVLHQDWLNGKEYKCKVSNKALPAPIEKTISKAKGQPREPQVYTLPPSREEMTKNQVSLWCLVKGFYPSDIAVEWESNGQPENNYKTTPPVLDSDGSFFLYSKLTVDKSRWQQGNVFSCSVMHEALHNHYTQKSLSLSPG
chain 2: EAVVTQEPSLTVSPGGTVTLTCRSSTGAVTTSNYANWVQEKPGQLPRGLIGGTNKRAPWVPARFSGSLLGGKAALTLSGAQPEDEAEYFCALWYSNLWVFGGGTKLTVLGQPKAAPSVTLFPPSSEELQANKATLVCLISDFYPGAVKVAWKADGSPVNTGVETTTPSKQSNNKYAASSYLSLTPEQWKSHRSYSCQVTHEGSTVEKTVAPAECSGGGGSEGKSSGSGSESKSTEGKSSGSGSESKSTGGGGSEVQLVESGGGLVQPGGSLKLSCAASGFTFNTYAMNWVRQAPGKGLEWVARIRSKYNNYATYYADSVKDRFTISRDDSKNTAYLQMNNLKTEDTAVYYCVRHGNFGNSYVSWFAYWGQGTLVTVSAASTKGPSVFPLAPSSKSTSGGTAALGCLVKDYFPEPVTVSWNSGALTSGVHTFPAVLQSSGLYSLSSVVTVPSSSLGTQTYICNVNHKPSNTKVDKRVEPKSCDKTHTCPPCPAPEAAGGPSVFLFPPKPKDTLMISRTPEVTCVVVDVSHEDPEVKFNWYVDGVEVHNAKTKPREEQYNSTYRVVSVLTVLHQDWLNGKEYKCKVSNKALPAPIEKTISKAKGQPREPQVYTLPPSREEMTKNQVSLSCAVKGFYPSDIAVEWESNGQPENNYKTTPPVLDSDGSFFLVSKLTVDKSRWQQGNVFSCSVMHEALHNRFTQKSLSLSPG
notes: Heterodimer of one DLL3 chain and one CD3 chain (scFab-Fc, knob-in-hole)
B2: DLL3#13/CD3#1 (bispecific antibody, human IgG1, kappa, lambda, L234A L235A)
chain 1: DVLMTQTPLSLPVSLGDQAAISCRSSQSIVHSNGNTYLEWYLQKPGQSPKVLIYKVSNRFSGVPDRFSGSGSGTDFTLKISRVEAEDLGVYYCFQGSHVPYTFGGGTKLEIKRTVAAPSVFIFPPSDEQLKSGTASVVCLLNNFYPREAKVQWKVDNALQSGNSQESVTEQDSKDSTYSLSSTLTLSKADYEKHKVYACEVTHQGLSSPVTKSFNRGECGGGGSEGKSSGSGSESKSTEGKSSGSGSESKSTGGGGSQIQLVQSGPELKKPGETVKISCKASGYTFTNYGVTWVKQAPGKGLKWMGWINTYSGAPTYADDFNGRFALSLETSASTAYLQINNLKNEDTATYFCARLDDYDLYYFDYWGQGTALTVSSASTKGPSVFPLAPSSKSTSGGTAALGCLVKDYFPEPVTVSWNSGALTSGVHTFPAVLQSSGLYSLSSVVTVPSSSLGTQTYICNVNHKPSNTKVDKRVEPKSCDKTHTCPPCPAPEAAGGPSVFLFPPKPKDTLMISRTPEVTCVVVDVSHEDPEVKFNWYVDGVEVHNAKTKPREEQYNSTYRVVSVLTVLHQDWLNGKEYKCKVSNKALPAPIEKTISKAKGQPREPQVYTLPPSREEMTKNQVSLWCLVKGFYPSDIAVEWESNGQPENNYKTTPPVLDSDGSFFLYSKLTVDKSRWQQGNVFSCSVMHEALHNHYTQKSLSLSPG
chain 2: B1 chain 2
notes: as for B1
B3: DLL3#18/CD3#1 (bispecific antibody, human IgG1, kappa, lambda, L234A L235A)
chain 1: DIQMTQSPASLAASVGETVTITCRASENIYYSLAWYQQKQGKSPQLLIYNANSLEDGVPSRFSGSGSGTQYSMKINNMQPEDTATYFCKQAYDVPLTFGAGTKLELKRTVAAPSVFIFPPSDEQLKSGTASVVCLLNNFYPREAKVQWKVDNALQSGNSQESVTEQDSKDSTYSLSSTLTLSKADYEKHKVYACEVTHQGLSSPVTKSFNRGECGGGGSEGKSSGSGSESKSTEGKSSGSGSESKSTGGGGSQVQLQQSGPDLVKPGASVKMSCEASGYTFTAYFIHWVKQKPGQGLEWIGYIDPFNDDTNYNVKFKGKATLTSDTSSSIAYMELSSLTSEDSSFYYCARGTSATLDYWGHGTTLTVSSASTKGPSVFPLAPSSKSTSGGTAALGCLVKDYFPEPVTVSWNSGALTSGVHTFPAVLQSSGLYSLSSVVTVPSSSLGTQTYICNVNHKPSNTKVDKRVEPKSCDKTHTCPPCPAPEAAGGPSVFLFPPKPKDTLMISRTPEVTCVVVDVSHEDPEVKFNWYVDGVEVHNAKTKPREEQYNSTYRVVSVLTVLHQDWLNGKEYKCKVSNKALPAPIEKTISKAKGQPREPQVYTLPPSREEMTKNQVSLWCLVKGFYPSDIAVEWESNGQPENNYKTTPPVLDSDGSFFLYSKLTVDKSRWQQGNVFSCSVMHEALHNHYTQKSLSLSPG
chain 2: B1 chain 2
notes: as for B1

The target of one test is T1, EGF1+2. The test can be described thus: flow cytometry on HEK293 cells expressing the DLL3 subdomain construct, PE anti-human secondary, control: secondary antibody only. The method in brief: (§1)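 Binders tested on HEK293 cells displaying the DLL3 subdomain construct; bound molecules detected by flow cytometry using PE-conjugated anti-human secondary antibody. Negative control: cells with secondary antibody only.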
Turning to B1, the binding result was “no binding (tested: 1.6 nM)”.

Regarding B2, the binding result is listed as “no binding (tested: 1.6 nM)”.

Regarding B3, the binding result is “no binding (tested: 1.6 nM)”.

The next test has as its target T2, EGF2+3. The description is as above. The method in brief:
as §1
For B1, the binding result was “no binding (tested: 1.6 nM)”.

For the molecule B2, the binding result is listed as “no binding (tested: 1.6 nM)”.

Regarding B3, the binding result is given as “no binding (tested: 1.6 nM)”.

For the next test, the target named is T3, EGF4+5. The test is described as above. The method in brief:
as §1
For B1, the binding result is on record as “no binding (tested: 1.6 nM)”.

In the case of B2, the binding result was “no binding (tested: 1.6 nM)”.

As for B3, the binding result is given as “no binding (tested: 1.6 nM)”.

Another test has as its target T4, EGF3+4. The description is as above. The method in brief: as §1
As to B1, the binding result is reported as “no binding (tested: 1.6 nM)”.

As for B2, the binding result is listed as “no binding (tested: 1.6 nM)”.

As to B3, the binding result was “no binding (tested: 1.6 nM)”.

The target in another test is T5, human DLL3 (endogenous, on SCLC cell …). The test can be described thus: flow cytometry titration on NCI-H82 cells, PE anti-human secondary, x-fold over background. The source says: (§2) Cells (T cells or human SCLC cells) were stained with increasing concentrations of two-step purified DLL3/CD3 binding proteins with increasing concentrations in FACS buffer (PBS/0.5% BSA/0.05% sodium azide). Bound molecules were detected with PE-conjugated anti-human secondary antibody (Sigma-Aldrich, #P8047).
For the molecule B1, the “EC50 (read off the curve)” value is around 1 nM.

In the case of B2, the “EC50 (read off the curve)” value is around 1 nM.

Consider B3, for which the “EC50 (read off the curve)” value is around 1 nM.

The target is the same in a further test. The test can be described thus: flow cytometry titration on SHP77 cells, PE anti-human secondary, x-fold over background.
Text: as §2
In general terms: Flow cytometry measures light scatter and fluorescence of single cells or particles in a stream.
On to B1, for which the “EC50 (read off the curve)” value was around 2 nM.

Turning to B2, the “EC50 (read off the curve)” value was around 2 nM.

Consider B3, for which the “EC50 (read off the curve)” value was around 2 nM.

A word on the EC50 (read off the curve): it is the concentration giving half of the maximal effect.

The record behind these values is patent publication US20220251236A1 (Boehringer Ingelheim, published 2022).
